Values quoted from earlier work in PMC12672491.
Read-outs that look alike come from different tables or passages of the source.

What was measured:
[1] = molecular target: importin-α3 (Homo sapiens) (UniProt O00629)
[2] = molecular target: importin-α3 (Homo sapiens) (UniProt O00629); remark: listed apart in the source

Chain of UniProt O00629 (O00629 2-521): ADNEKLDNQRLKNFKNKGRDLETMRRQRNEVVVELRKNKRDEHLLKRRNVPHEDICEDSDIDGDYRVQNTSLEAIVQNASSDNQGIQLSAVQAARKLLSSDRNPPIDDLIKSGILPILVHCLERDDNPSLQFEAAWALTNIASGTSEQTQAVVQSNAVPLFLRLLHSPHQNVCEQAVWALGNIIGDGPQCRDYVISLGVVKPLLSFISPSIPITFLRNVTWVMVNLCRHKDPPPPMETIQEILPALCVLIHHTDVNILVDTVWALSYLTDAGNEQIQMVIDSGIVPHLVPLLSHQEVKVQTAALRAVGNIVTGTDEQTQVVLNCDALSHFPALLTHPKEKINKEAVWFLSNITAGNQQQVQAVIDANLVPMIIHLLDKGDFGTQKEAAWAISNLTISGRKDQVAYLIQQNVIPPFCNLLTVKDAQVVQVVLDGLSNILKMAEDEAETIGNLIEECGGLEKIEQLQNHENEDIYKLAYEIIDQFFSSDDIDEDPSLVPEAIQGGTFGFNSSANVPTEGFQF

Snail (from UniProt O95863)
Kd [1]: 2100 nM | Kd [2]: 800 nM
